{"source": "paper PMC4255277", "key": {"[1]": {"target": "melanocortin-4 receptor (zebrafish) (zebrafish) (UniProt B0V1P1)", "sequence (B0V1P1 whole entry)": "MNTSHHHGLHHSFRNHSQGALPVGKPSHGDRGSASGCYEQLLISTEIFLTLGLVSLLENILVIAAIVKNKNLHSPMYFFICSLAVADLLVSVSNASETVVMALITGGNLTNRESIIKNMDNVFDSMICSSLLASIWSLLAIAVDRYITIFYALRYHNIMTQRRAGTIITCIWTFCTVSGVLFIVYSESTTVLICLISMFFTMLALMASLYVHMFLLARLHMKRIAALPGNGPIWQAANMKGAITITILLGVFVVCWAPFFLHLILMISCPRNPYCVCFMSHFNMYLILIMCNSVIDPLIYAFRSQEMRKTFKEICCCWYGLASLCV", "assay": "competition binding assay on cells"}, "[2]": {"target": "melanocortin-4 receptor (zebrafish) (zebrafish) (UniProt B0V1P1)", "assay": "competition binding assay on cells", "remark": "listed apart in the source"}}, "note": "Like-named read-outs stand apart in the source and are kept apart here.", "data": [{"substance": "α–melanocyte-stimulating hormone (peptide)", "values": [{"measurement": "IC50", "setting": "[1]", "result": 50, "unit": "nM"}, {"measurement": "IC50", "setting": "[2]", "result": 45, "unit": "nM"}]}]}
